Measured values from patent US20220010021A1 (Sanofi, published 2022).
Changes are numbered by the printed parent chain. Names may count otherwise.

T1: human beta-Klotho (KLB) (human, UniProt Q86Z14 53-997)
T1 construct: bought protein, used as analyte in the off-rate screening; also called human KLB; β-Klotho
T1 sequence (looked up): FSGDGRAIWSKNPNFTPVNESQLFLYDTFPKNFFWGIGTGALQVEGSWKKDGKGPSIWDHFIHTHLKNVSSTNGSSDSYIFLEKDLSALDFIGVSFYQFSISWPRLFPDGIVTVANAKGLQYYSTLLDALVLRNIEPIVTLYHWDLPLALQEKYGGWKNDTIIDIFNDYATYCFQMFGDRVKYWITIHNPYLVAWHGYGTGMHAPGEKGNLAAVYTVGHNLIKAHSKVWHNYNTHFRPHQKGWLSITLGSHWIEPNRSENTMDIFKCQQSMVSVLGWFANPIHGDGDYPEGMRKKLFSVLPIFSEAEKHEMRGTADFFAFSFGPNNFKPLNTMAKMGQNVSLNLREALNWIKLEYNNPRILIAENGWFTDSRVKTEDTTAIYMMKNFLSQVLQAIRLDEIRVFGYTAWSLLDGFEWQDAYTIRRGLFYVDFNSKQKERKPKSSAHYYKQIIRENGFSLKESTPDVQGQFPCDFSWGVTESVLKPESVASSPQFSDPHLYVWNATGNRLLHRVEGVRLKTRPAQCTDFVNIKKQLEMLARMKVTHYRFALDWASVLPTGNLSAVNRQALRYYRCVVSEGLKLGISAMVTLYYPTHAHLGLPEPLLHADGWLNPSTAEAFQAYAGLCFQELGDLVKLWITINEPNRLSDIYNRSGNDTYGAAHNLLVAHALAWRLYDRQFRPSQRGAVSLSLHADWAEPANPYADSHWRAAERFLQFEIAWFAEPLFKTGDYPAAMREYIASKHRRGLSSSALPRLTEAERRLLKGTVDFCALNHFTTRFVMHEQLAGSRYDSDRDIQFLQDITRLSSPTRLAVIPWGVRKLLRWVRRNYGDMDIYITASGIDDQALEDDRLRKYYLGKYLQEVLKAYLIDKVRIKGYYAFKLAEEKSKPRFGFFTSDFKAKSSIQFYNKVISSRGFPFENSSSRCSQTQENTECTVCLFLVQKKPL

T2: human beta-Klotho (KLB) (human, UniProt Q86Z14 53-997)
T2 construct: Bought soluble protein; also called human KLB; ß-Klotho
T2 sequence (looked up): T1 sequence (looked up)

B1: 16H7 variant with light chain substitution P54R (antibody, V domains shown)
VH: not shown
VL: SYVLTQPPSVSVAPGQTARITCGGNNIGSESVHWYQQKPGQAPVLVVYDDSDRRSGIPERFSGSNSGNTATLTISRVEAGDEADYYCQVWDGNSDHVVFGGGTKLTVLG
B2: 16H7 light chain variant S29E (antibody, human IgG4 S228P, lambda, V domains shown)
VH: not shown
VL: B1 VL with S29E, R54P
B3: 16H7 variant with light chain substitution D52A (antibody, V domains shown)
VH: not shown
VL: B1 VL with D52A, R54P
B4: 16H7 light chain variant I27W (antibody, human IgG4 S228P, lambda, V domains shown)
VH: not shown
VL: B1 VL with I27W, R54P
B5: 16H7 light chain variant S29A (antibody, V domains shown)
VH: not shown
VL: B1 VL with S29A, R54P
notes: copies: 2 + 2
B6: 16H7 light chain variant S29T (antibody, human IgG4 S228P, lambda, V domains shown)
VH: not shown
VL: B1 VL with S29T, R54P
B7: 16H7 light chain variant S29H (antibody, V domains shown)
VH: not shown
VL: B1 VL with S29H, R54P
notes: copies: 2 + 2
B8: 16H7 light chain variant S31P (antibody, V domains shown)
VH: not shown
VL: B1 VL with S31P, R54P
notes: copies: 2 + 2
B9: 16H7 variant with light chain substitution D52F (antibody, V domains shown)
VH: not shown
VL: B1 VL with D52F, R54P
B10: 16H7 light chain variant S29L (antibody, V domains shown)
VH: not shown
VL: B1 VL with S29L, R54P
notes: copies: 2 + 2
B11: 16H7 light chain variant S31W (antibody, human IgG4 S228P, lambda, V domains shown)
VH: not shown
VL: B1 VL with S31W, R54P
B12: 16H7 light chain variant S29I (antibody, human IgG4 S228P, lambda, V domains shown)
VH: not shown
VL: B1 VL with S29I, R54P
B13: 16H7 variant with light chain substitution D52E (antibody, V domains shown)
VH: not shown
VL: B1 VL with D52E, R54P
B14: 16H7 light chain variant S31I (antibody, human IgG4 S228P, lambda, V domains shown)
VH: not shown
VL: B1 VL with S31I, R54P
B15: 16H7 light chain variant S31R (antibody, human IgG4 S228P, lambda, V domains shown)
VH: not shown
VL: B1 VL with S31R, R54P
B16: 16H7 light chain variant S29Q (antibody, human IgG4 S228P, lambda, V domains shown)
VH: not shown
VL: B1 VL with S29Q, R54P
B17: 16H7 light chain variant S29D (antibody, human IgG4 S228P, lambda, V domains shown)
VH: not shown
VL: B1 VL with S29D, R54P
B18: 16H7 light chain variant S31D (antibody, human IgG4 S228P, lambda, V domains shown)
VH: not shown
VL: B1 VL with S31D, R54P
B19: 16H7 light chain variant I27Y (antibody, human IgG4 S228P, lambda, V domains shown)
VH: not shown
VL: B1 VL with I27Y, R54P
B20: 16H7 light chain variant S31C (antibody, human IgG4 S228P, lambda, V domains shown)
VH: not shown
VL: B1 VL with S31C, R54P
B21: 16H7 light chain variant S29P (antibody, human IgG4 S228P, lambda, V domains shown)
VH: not shown
VL: B1 VL with S29P, R54P
B22: 16H7 light chain variant S31M (antibody, human IgG4 S228P, lambda, V domains shown)
VH: not shown
VL: B1 VL with S31M, R54P
B23: 16H7 light chain variant S31A (antibody, V domains shown)
VH: not shown
VL: B1 VL with S31A, R54P
notes: copies: 2 + 2
B24: 16H7 light chain variant S31E (antibody, V domains shown)
VH: not shown
VL: B1 VL with S31E, R54P
notes: copies: 2 + 2
B25: 16H7 light chain variant S29F (antibody, V domains shown)
VH: not shown
VL: B1 VL with S29F, R54P
notes: copies: 2 + 2
B26: 16H7 light chain variant S29R (antibody, V domains shown)
VH: not shown
VL: B1 VL with S29R, R54P
notes: copies: 2 + 2
B27: 16H7 light chain variant S31V (antibody, human IgG4 S228P, lambda, V domains shown)
VH: not shown
VL: B1 VL with S31V, R54P
B28: 16H7 light chain variant S29V (antibody, human IgG4 S228P, lambda, V domains shown)
VH: not shown
VL: B1 VL with S29V, R54P
B29: 16H7 light chain variant S29G (antibody, V domains shown)
VH: not shown
VL: B1 VL with S29G, R54P
notes: copies: 2 + 2
B30: 16H7 light chain variant S31T (antibody, V domains shown)
VH: not shown
VL: B1 VL with S31T, R54P
notes: copies: 2 + 2
B31: 16H7 light chain variant S29M (antibody, human IgG4 S228P, lambda, V domains shown)
VH: not shown
VL: B1 VL with S29M, R54P
B32: 16H7 light chain variant S29K (antibody, human IgG4 S228P, lambda, V domains shown)
VH: not shown
VL: B1 VL with S29K, R54P
B33: 16H7 light chain variant S31G (antibody, human IgG4 S228P, lambda, V domains shown)
VH: not shown
VL: B1 VL with S31G, R54P
B34: 16H7 light chain variant S29C (antibody, V domains shown)
VH: not shown
VL: B1 VL with S29C, R54P
notes: copies: 2 + 2

What was measured:
[1] = biological target: human FGFR1c/KLB receptor complex on iLite FGF21 Assay Ready Cells (human, UniProt P11362 22-822; Q86Z14 1-1044); assay: cell-based or functional assay
Sequence of human FGFR1c/KLB receptor complex on iLite FGF21 Assay Ready Cells (P11362 22-822, chain 1 of 2): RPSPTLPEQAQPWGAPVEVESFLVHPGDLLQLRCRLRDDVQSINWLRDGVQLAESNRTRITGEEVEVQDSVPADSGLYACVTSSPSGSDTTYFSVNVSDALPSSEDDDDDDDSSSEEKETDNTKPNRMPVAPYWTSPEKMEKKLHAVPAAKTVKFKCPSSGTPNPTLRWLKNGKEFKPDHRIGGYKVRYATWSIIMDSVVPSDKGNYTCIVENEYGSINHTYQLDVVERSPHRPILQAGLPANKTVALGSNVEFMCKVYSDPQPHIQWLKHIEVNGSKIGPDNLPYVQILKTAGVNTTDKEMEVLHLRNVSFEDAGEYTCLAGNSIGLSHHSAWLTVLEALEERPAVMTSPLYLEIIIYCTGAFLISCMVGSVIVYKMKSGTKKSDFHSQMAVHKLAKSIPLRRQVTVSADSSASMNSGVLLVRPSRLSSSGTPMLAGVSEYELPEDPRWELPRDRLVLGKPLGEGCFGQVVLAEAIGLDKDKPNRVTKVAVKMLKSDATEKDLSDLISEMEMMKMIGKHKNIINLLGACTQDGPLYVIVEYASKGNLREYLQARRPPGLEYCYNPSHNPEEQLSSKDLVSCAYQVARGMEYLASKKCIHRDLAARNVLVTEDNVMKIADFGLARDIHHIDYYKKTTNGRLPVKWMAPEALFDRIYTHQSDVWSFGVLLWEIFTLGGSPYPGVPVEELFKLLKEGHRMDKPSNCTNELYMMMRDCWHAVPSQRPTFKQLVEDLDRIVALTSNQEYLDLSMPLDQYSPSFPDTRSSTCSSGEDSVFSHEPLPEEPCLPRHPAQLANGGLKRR
Sequence of human FGFR1c/KLB receptor complex on iLite FGF21 Assay Ready Cells (Q86Z14 whole entry, chain 2 of 2): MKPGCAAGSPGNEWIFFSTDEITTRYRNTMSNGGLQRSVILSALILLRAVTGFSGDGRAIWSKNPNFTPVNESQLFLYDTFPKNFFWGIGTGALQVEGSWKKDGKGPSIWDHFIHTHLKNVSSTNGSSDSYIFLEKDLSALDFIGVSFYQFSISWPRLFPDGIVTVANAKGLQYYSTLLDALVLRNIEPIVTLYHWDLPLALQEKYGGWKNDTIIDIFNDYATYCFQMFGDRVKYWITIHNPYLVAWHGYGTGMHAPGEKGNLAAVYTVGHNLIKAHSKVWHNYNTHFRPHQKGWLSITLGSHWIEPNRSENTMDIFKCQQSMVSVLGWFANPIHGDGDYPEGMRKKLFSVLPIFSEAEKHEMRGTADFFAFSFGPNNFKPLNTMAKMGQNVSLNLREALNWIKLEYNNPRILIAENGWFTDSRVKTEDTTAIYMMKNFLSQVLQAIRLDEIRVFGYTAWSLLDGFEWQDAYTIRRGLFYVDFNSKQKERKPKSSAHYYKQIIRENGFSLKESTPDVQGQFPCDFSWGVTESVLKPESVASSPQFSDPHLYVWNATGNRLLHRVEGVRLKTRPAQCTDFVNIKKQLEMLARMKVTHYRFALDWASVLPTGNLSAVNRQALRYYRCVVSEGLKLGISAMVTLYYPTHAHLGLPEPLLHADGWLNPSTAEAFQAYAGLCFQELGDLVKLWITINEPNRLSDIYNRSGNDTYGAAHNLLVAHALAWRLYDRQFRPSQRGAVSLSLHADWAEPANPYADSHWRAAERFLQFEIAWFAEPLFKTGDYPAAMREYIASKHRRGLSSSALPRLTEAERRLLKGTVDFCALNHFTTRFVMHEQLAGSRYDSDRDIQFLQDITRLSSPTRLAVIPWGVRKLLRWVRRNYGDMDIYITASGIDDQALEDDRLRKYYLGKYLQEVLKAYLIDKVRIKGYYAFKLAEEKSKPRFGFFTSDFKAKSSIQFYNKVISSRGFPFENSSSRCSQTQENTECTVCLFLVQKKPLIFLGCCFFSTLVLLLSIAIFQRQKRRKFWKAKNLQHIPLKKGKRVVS

human beta-Klotho (KLB) [2] = biological target: T1, human beta-Klotho (KLB); assay: BLI off-rate screening, mAb captured, KLB analyte;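 also: Off-rate taken from the dissociation phase, biosensors held in D-PBS with 0.1% BSA over 1800 s, antibody supernatants diluted to 25 µg/mL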
[3] = biological target: cell surface receptor composed of FGFR1c and co-receptor beta-Klotho (KLB) (human, UniProt P11362 22-822; Q86Z14 1-1044); assay: cell-based or functional assay
Sequence of cell surface receptor composed of FGFR1c and co-receptor beta-Klotho (KLB) (P11362 22-822, chain 1 of 2): as the sequence (P11362 22-822, chain 1 of 2) above
Sequence of cell surface receptor composed of FGFR1c and co-receptor beta-Klotho (KLB) (Q86Z14 whole entry, chain 2 of 2): as the sequence (Q86Z14 whole entry, chain 2 of 2) above

human beta-Klotho (KLB) [4] = biological target: T2, human beta-Klotho (KLB); assay: BLI off-rate screen, supernatant;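 also: expression supernatants tested at 25 µg/mL, dissociation followed for 1800 s in D-PBS with 0.1% BSA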
For Mean E max (%) in this document: reference of the scale not given here.
For Mean E max, Luciferase reporter gene assay in this document: reference of the scale not given here.

Row | Binder | Mean E max (%) [1] [%] | Mean EC50 [1] [nM] | koff (human beta-Klotho (KLB) [2]) [s⁻¹] | Mean E max, Luciferase reporter gene assay [3] [%] | Mean EC50, Luciferase reporter gene assay [3] [nM] | koff (human beta-Klotho (KLB) [4]) [s⁻¹]
1 | B1 | 104 | 0.111 | 0.00011 |  |  | 
2 | B2 |  |  |  | 114 | 0.102 | 2.3e-05
3 | B3 | 101 | 0.163 | 4.8e-05 |  |  | 
4 | B4 |  |  |  | 104 | 0.156 | 6.5e-05
5 | B5 |  |  |  | 100 | 0.153 | 1e-05
6 | B6 |  |  |  | 102 | 0.096 | 2.2e-05
7 | B7 |  |  |  | 100 | 0.119 | 4.9e-05
8 | B8 |  |  |  | 103 | 0.104 | 6.6e-05
9 | B9 | 102 | 0.105 | 7.9e-06 |  |  | 
10 | B10 |  |  |  | 100 | 0.108 | 1.1e-05
11 | B11 |  |  |  | 103 | 0.178 | 0.00034
12 | B12 |  |  |  | 107 | 0.14 | 3e-05
13 | B13 | 123 | 0.114 | 1e-07 |  |  | 
14 | B14 |  |  |  | 93 | 0.089 | 0.00015
15 | B15 |  |  |  | 102 | 0.166 | 4.2e-05
16 | B16 |  |  |  | 102 | 0.114 | 2.2e-05
17 | B17 |  |  |  | 109 | 0.136 | 4.5e-05

Row | Binder | Mean E max (%) [1] [%] | Mean EC50 [1] [nM] | koff (human beta-Klotho (KLB) [2]) [s⁻¹] | Mean E max, Luciferase reporter gene assay [3] [%] | Mean EC50, Luciferase reporter gene assay [3] [nM] | koff (human beta-Klotho (KLB) [4]) [s⁻¹]
18 | B18 |  |  |  | 99 | 0.077 | 0.00019
19 | B19 |  |  |  | 96 | 0.116 | 4.2e-05
20 | B20 |  |  |  | 100 | 0.128 | 0.00017
21 | B21 |  |  |  | 105 | 0.174 | 5.2e-05
22 | B22 |  |  |  | 97 | 0.151 | 0.0003
23 | B23 |  |  |  | 100 | 0.099 | 5.8e-05
24 | B24 |  |  |  | 98 | 0.111 | 0.00031
25 | B25 |  |  |  | 116 | 0.19 | 1.9e-05
26 | B26 |  |  |  | 105 | 0.184 | 6.7e-06
27 | B27 |  |  |  | 100 | 0.106 | 6.6e-05
28 | B28 |  |  |  | 107 | 0.109 | 1.3e-05
29 | B29 |  |  |  | 98 | 0.09 | 3.5e-05
30 | B30 |  |  |  | 101 | 0.108 | 0.00011
31 | B31 |  |  |  | 106 | 0.133 | 2.3e-05
32 | B32 |  |  |  | 96 | 0.146 | 1.5e-05
33 | B33 |  |  |  | 109 | 0.111 | 5.5e-05
34 | B34 |  |  |  | 108 | 0.172 | 5e-05
